In patent publication US20240207432A1 (BIOSION, published 2024):
Like-named read-outs stand apart in the source and are kept apart here.

How the values were obtained:
human TROP2-his protein [1] = molecular target: T1, human TROP2-his protein (human, UniProt P09758 27-274); assay: SPR Biacore, human TROP2-his analyte
T1 construct: Biotin-labelled in the ELISAs, unlabelled analyte in Biacore; also called biotin-labeled human TROP2-his protein; biotin human Trop2-his
T1 sequence: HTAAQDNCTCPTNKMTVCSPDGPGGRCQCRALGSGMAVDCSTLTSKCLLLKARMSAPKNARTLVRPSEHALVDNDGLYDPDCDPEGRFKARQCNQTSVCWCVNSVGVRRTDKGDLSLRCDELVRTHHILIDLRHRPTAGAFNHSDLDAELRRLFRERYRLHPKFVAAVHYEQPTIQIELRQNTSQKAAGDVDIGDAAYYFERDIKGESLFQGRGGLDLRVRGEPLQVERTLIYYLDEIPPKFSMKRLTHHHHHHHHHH

human TROP2-his protein [2] = molecular target: T1, human TROP2-his protein; assay: SPR Biacore, antibody captured on anti-human IgG CM5 chip, TROP2-his analyte
Protocol: Un-reacted moieties on the chip (biosensor) surface were blocked with ethanolamine. […] The antigen-antibody association kinetics was followed for 2 minutes and the dissociation kinetics was followed for 10 minutes. The association and dissociation curves were fit to a 1:1 Langmuir binding model using BIAcore evaluation software.

human TROP2-his protein [3] = molecular target: T1, human TROP2-his protein; assay: capture ELISA, antibody captured on anti-human IgG Fc coat, biotin human TROP2-his in solution, OD(450-630)
Protocol: (§1) Plates were washed once with wash buffer (PBS+0.05% v/v Tween-20, PBST) and then blocked with 200 μl/well blocking buffer (5% w/v non-fatty milk in PBST) for 2 hours at 37° C. […] Plates containing captured anti-TROP2 antibodies were incubated with biotin-labeled human TROP2-his protein (prepared in house, SEQ ID NO: 67, 56.7 ng/mL in 2.5% w/v non-fatty milk in PBST, 100 μl/well) for 40 minutes at 37° C., washed 4 times, and incubated with streptavidin conjugated HRP (1:10000 dilution in PBST, Jackson Immuno Research, Cat #016-030-084, 100 μl/well) for 40 minutes at 37° C. After a final wash, plates were incubated with 100 μl/well ELISA substrate TMB (Innoreagents, Cat #TMB-S-002) at room temperature. The reaction was stopped in 3-10 minutes at room temperature with 50 μl/well 1M H₂SO₄, and the absorbance of each well was read on a microplate reader using dual wavelength mode with 450 nm for TMB and 630 nm as the reference wavelength. The OD (450-630) values were plotted against antibody concentration. Data was analyzed using Graphpad Prism software and EC₅₀ values were reported.
(§2) For the capture ELISA, AffiniPure Goat Anti-Human IgG, Fcγ fragment specific (Jackson Immuno Research, Cat #109-005-098) was used instead of AffiniPure Goat Anti-Mouse IgG, Fcγ fragment specific, 100 μl/well.

human TROP2-his protein [4] = molecular target: T1, human TROP2-his protein; assay: as above; remark: listed apart in the source
Protocol: as §1, §2

human TROP2-his protein [5] = molecular target: T1, human TROP2-his protein; assay: competitive ELISA: BM1 coated at 1 ug/mL, antibody premixed with biotin human TROP2-his; blocked: binding of TROP2-his to coated BM1 (self-competition)
Protocol: (§3) The mouse anti-TROP2 antibodies were tested for epitope binding in a competitive ELISA assay. […] ELISA plates were washed once with wash buffer (PBS+0.05% v/v Tween-20, PBST) and then blocked with 200 μl blocking buffer (5% w/v non-fatty milk in PBST) for 2 hours at 37° C. While blocking, the anti-TROP2 antibodies or controls were diluted with biotin labeled human TROP2-his protein (SEQ ID NO: 67, 34 ng/mL in 2.5% wA non-fatty milk in PBST), starting at 80 nM with a 5-fold serial dilution, and incubated at room temperature for 40 minutes. After plate washing for 4 times, the antibody/TROP2-his protein mixtures were added to the antibody coated plates, 100 μl per well. After incubation at 37° C. for 40 minutes, plates were washed 4 times again using wash buffer. Then the plates were added and incubated with 100 μl Peroxidase Streptavidin (1:10000 dilution in PBST buffer. Jackson Immunoresearch, Cat #016-030-084) for 40 minutes at 37° C. Plates were washed again using wash buffer. Finally, TMB was added and the reaction was stopped using 1M H₂SO₄. The absorbance of each well was read on a microplate reader using dual wavelength mode with 450 nm for TMB and 630 nm as the reference wavelength, and the OD (450-630) values were plotted against antibody concentration. Data was analyzed using Graphpad Prism software and IC₅₀ values were reported.

human TROP2-his protein [6] = molecular target: T1, human TROP2-his protein; assay: as above; remark: listed apart in the source
Protocol: as §3

human TROP2-his protein [7] = molecular target: T1, human TROP2-his protein; assay: competitive ELISA: mouse A1E4F7D4 coated at 2 ug/mL, antibody premixed with biotin human TROP2-his; blocked: binding of TROP2-his to coated A1E4F7D4
Protocol: as §3

human TROP2-his protein [8] = molecular target: T1, human TROP2-his protein; assay: SPR Biacore, antibody captured on chip, TROP2-his analyte
[9] = molecular target: T2, cynomolgus TROP2-his protein (cynomolgus monkey, UniProt P09758 27-272 (human entry), limits assumed); assay: as above
T2 construct: no cleavage site is stated; also called Cynomolgus monkey TROP2-his protein; monkey TROP2
T2 chain: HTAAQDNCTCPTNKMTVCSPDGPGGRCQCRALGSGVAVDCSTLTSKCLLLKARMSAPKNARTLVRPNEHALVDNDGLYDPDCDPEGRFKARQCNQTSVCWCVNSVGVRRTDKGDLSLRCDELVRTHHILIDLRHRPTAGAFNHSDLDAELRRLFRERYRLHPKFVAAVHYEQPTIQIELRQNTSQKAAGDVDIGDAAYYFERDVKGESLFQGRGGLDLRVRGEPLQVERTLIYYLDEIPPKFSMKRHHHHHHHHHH

B1: huA1E4F7D4-V16 (antibody, human IgG1, kappa, V domains shown)
VH: QVQLVQSGAEVKKPGASVKVSCKASGYSFTTHWIHWVRQAPGQGLEWIGTIFPSNAYAVYNQKFRDRATMTADTSISTAYIELSRLRSDDTAVYYCARASYFDYWGQGTTVTVSS
VL: EIVLTQSPATLSLSPGERATLSCRASQNIGTSIHWFQQKPGGAPRLLIKYASESISGIPSRFSGSGSGTDFTLTISSLEPEDFAVYYCQHSHSWPFTFGQGTKLEIKR
notes: Positions of the X residues are given in the claims; also called humanized antibody huA1E4F7D4-V16
Human TROP2-his protein [1]
  Kd: 0.196 nM
  koff: 7.92e-05 s⁻¹
  kon: 404000 M⁻¹ s⁻¹

B2: benchmark (in house prepared sacituzumab) (antibody, human IgG1, kappa, V domains shown)
VH: SVQLQQSGSELKKPGASVKVSCKASGYTFTNYGMNWVKQAPGQGLKWMGWINTYTGEPTYTDDFKGRFAFSLDTSVSTAYLQISSLKADDTAVYFCARGGFGSSYWYFDVWGQGSLVTVSS
VL: DIQLTQSPSSLSASVGDRVSITCKASQDVSIAVAWYQQKPGKAPKLLIYSASYRYTGVPDRFSGSGSGTDFTLTISSLQPEDFAVYYCQQHYITPLTFGAGTKVEIKR
notes: also called BM; BM1
Human TROP2-his protein [2]
  Kd: 0.385 nM
Human TROP2-his protein [3]
  EC50: 0.357 nM
Human TROP2-his protein [4]
  EC50: 0.27 nM
Human TROP2-his protein [5]
  IC50: 1.28 nM
Human TROP2-his protein [6]
  IC50: 0.632 nM

B3: mouse antibody A1E11A12D1 (antibody, V domains shown)
VH: QVQLQQSGAELARPGASVKLSCMASGYTFTTYGISWVRQRTGQGLEWIGQIYPGSDYSYCDEDFKGKATLTADKSSSTAYMQLSSLTSEDSAVYFCARASYFDYWGQGTTLTVSS
VL: DILLTQSPAILSVSPGERVSFSCRASQTIGTAIHWYQQRANGSPRLLIKYASESISGIPSRFSGSGSGTDFALSINTVESEDFAYYYCQQSNNWPFTFGGGTKLEIR
notes: Mouse monoclonal IgG purified from hybridoma supernatant
Human TROP2-his protein [7]
  IC50: 0.102 nM

B4: mouse antibody A1E4F7D4 (antibody, V domains shown)
VH: QVQLQQSGAELAKPGTSVKMSCEASGYSFTTHWIHWMKQRPGQGLEWIGTIFPSNAYAVYNQKFRDRAIMTADRSSTTAYIQLTGLTSEDSAVYYCARASYFDYWGQGTTLTVSS
VL: DILLTQSPATLSVSPGERVTFSCRASQNIGTSIHWFQQRTTGSPRLLIKYASESISGIPSRFSGSGSGTDFTLHINSVESEDIAHYYCQHSHSWPFTFGSGTKLEIQ
notes: Mouse monoclonal IgG purified from hybridoma supernatant; also called Mouse A1E4F7D4
Human TROP2-his protein [8]
  Kd: 0.0554 nM
  koff: 4.7e-05 s⁻¹
  kon: 849000 M⁻¹ s⁻¹
[9]
  Kd: 0.0489 nM
  koff: 4.54e-05 s⁻¹
  kon: 930000 M⁻¹ s⁻¹
